In doi:10.1101/2025.04.04.647159:

Biological target: Candidatus Liberibacter asiaticus pyrophosphate-fructose-6-phosphate 1-phosphotransferase (Candidatus Liberibacter asiaticus)
Experiment: SEC

Candidatus Liberibacter asiaticus pyrophosphate-fructose-6-phosphate 1-phosphotransferase (enzyme)
stoichiometry N: 4
